# Results as given in patent US20030022292A1.
# Target: CEACAM1 (carcinoembryonic antigen-related cellular adhesion molecule 1) on human CD4+ T lymphocytes and Jurkat cells (human) (UniProt P13688)
# Assay: cell-based or functional assay
# UniProt P13688, sequence (P13688 35-526): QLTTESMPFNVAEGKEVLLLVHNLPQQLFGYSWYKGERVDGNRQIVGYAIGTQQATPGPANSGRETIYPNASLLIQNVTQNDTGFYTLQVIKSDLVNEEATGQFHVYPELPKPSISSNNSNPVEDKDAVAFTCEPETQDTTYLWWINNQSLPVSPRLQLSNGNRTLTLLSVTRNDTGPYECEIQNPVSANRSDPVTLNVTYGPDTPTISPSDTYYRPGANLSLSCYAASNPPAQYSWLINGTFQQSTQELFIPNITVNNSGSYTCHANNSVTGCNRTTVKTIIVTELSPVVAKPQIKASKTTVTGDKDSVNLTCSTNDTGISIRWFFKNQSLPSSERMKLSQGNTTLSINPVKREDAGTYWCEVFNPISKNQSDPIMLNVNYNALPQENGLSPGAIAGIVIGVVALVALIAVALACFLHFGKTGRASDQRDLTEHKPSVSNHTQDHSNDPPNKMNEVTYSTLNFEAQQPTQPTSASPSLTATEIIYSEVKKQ
Substance,"reduction of IL-2-dependent CD4+ T lymphocyte proliferation at MOI=50, relative to Opa50-expressing gonococci","reduction of IL-2-dependent CD4+ T lymphocyte proliferation at MOI=100, relative to Opa50-expressing gonococci","reduction of IL-2-dependent CD4+ T lymphocyte proliferation at MOI=200, relative to Opa50-expressing gonococci",lowest multiplicity of infection at which inhibition of Jurkat proliferation was apparent (MOI (bacteria/cell))
"Opa52 protein of Neisseria gonorrhoeae strain MS11, expressed on gonococcal strain N309 (ligand)",34%,51%,76%,
"Opa57 protein of Neisseria gonorrhoeae strain MS11, expressed on gonococcal strain N313 (ligand)",,,,25
